# Measurements: article PMC5402698
# Experiments:
# [1] = biological target: T1, EcoRV endonuclease (wild type) (UniProt P04390 2-245); assay: NMR
# [2] = biological target: T1, EcoRV endonuclease (wild type); assay: X-ray crystallography
# [3] = biological target: T1, EcoRV endonuclease (wild type); assay: NMR; remark: listed apart in the source
# [4] = biological target: T1, EcoRV endonuclease (wild type); assay: NMR; remark: listed apart in the source
# [5] = biological target: T1, EcoRV endonuclease (wild type); assay: X-ray crystallography; remark: listed apart in the source
# T1 sequence (P04390 2-245): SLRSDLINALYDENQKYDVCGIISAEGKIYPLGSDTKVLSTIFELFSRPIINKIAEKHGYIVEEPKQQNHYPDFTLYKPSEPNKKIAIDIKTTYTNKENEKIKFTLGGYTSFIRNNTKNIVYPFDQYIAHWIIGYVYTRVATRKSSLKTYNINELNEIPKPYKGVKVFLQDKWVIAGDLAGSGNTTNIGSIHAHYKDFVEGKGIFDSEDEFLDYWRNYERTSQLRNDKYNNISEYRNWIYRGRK
binder,measurement,setting,value
cleaved 24 bp duplex products (dsDNA) DNA 1: CGCTGGAAAGAT DNA 2: ATCTTTCCAGCG DNA 3: ATCTTTGGAGGC DNA 4: GCCTCCAAAGAT,binding result,[1],binds
cleaved 12 bp crystal duplex (dsDNA) DNA 1: AAAGAT DNA 2: ATCTTT,binding result,[2],binds
cognate 16 bp GATATC (dsDNA) DNA 1: GCAAAGATATCTTTCG DNA 2: CGAAAGATATCTTTGC,binding result,[3],binds
nonspecific 16 bp inverted site CTATAG (dsDNA) DNA 1: GCAAACTATAGTTTCG DNA 2: CGAAACTATAGTTTGC,binding result,[4],binds
cognate 12 bp crystal duplex (dsDNA) DNA 1: AAAGATATCTTT DNA 2: AAAGATATCTTT,binding result,[5],binds
